T1: AP-Nogo-66 (UniProt Q9NQC3 1055-1120)
T1 construct: domain: Nogo-66; also called AP-Ng-66; Nogo-66 ligand; not shown: alkaline phosphatase (AP) moiety
T1 sequence (looked up): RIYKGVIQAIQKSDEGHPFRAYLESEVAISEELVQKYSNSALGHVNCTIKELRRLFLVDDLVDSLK


Molecular target: T1, AP-Nogo-66
Test: AP-ligand binding to transfected COS-7 cells
Procedure: In order to probe the NgR domains that interact with Aβ and Nogo-66, a strategy based on the crystal structure of NgR was employed. A number of human NgR surface-accessible residues were mutated to Ala either individually or as groups of adjacent residues (Table 3), and resultant ligand binding characteristics were assessed. The ligand concentrations were AP, 30 nM, AP-Nogo-66, 5 nM, AP-Aβ(1-28), 50 nM. NgR mutagenesis has been previously described. Hu et al., J Neurosci 25:5298-5304 (2005); Fournier et al., J Neurosci 23:1416-1423 (2003). The expression of each mutant NgR protein was verified by immunohistochemical detection at the surface of cells transfected with expression vector (FIG. 2a). Bound AP was stained and measured using NIH image software. Mutants of human NgR were detected on the surface of transfected COS-7 immunofluorescently. For each of the mutants with altered binding characteristics, expression of immunoreactive NgR protein with electrophoretic mobility similar to wild type was also confirmed by immunoblot (FIG. 2c). Whole COS-7 cell lysates expressing NgR mutants were subjected to SDS-PAGE and blotted with anti-NgR antibodies. The mobility of each mutant was indistinguishable from wild type NgR, except for the mutations in N-linked glycosylation sites (N82 and N179). The binding of both AP-Aβ(1-28) and AP-Nogo-66 ligands to cells expressing this collection of NgR mutant proteins was assessed at concentrations equal to the predetermined Kd's of the ligands (FIG. 2b, d).

| Binder | binding result |
| --- | --- |
| human NgR mutant 158, 160 (mutated to alanine) (receptor) CPGACVCYNEPKVTTSCPQQGLQAVPVGIPAASQRIFLHGNRISHVPAASFRACRNLTILWLHSNVLARIDAAAFTGLALLEQLDLSDNAQLRSVDPATFHGLGRLHTLHLDRCGLQELGPGLFRGLAALQALALQDNALQALPDDTFRDLGNLTHLFLHGNRISSVPERAFRGLHSLDRLLLHQNRVAHVHPHAFRDLGRLMTLYLFANNLSALPTEALAPLRALQYLRLNDNPWVCDCRARPLWAWLQKFRGSSSEVPCSLPQRLAGRDLKRLAANDLQGCAVATGPYHPIWTGRATDEEPLGLPKCCQPDAADKASVLEPGRPASAGNALKGRVPPGDSPPGNGSGPRHINDSPFGTLPGSAEPPLTAVRPEGSEPPGFPTSGPRRRPGCSRKNRTRSHCRLGQAGSGGGGTGDSE | no binding (tested: 5 nM) |
| human NgR mutant 182, 186, 210 (mutated to alanine) (receptor) CPGACVCYNEPKVTTSCPQQGLQAVPVGIPAASQRIFLHGNRISHVPAASFRACRNLTILWLHSNVLARIDAAAFTGLALLEQLDLSDNAQLRSVDPATFHGLGRLHTLHLDRCGLQELGPGLFRGLAALQYLYLQDNALQALPDDTFRDLGNLTALFLAGNRISSVPERAFRGLHSLDRLLLAQNRVAHVHPHAFRDLGRLMTLYLFANNLSALPTEALAPLRALQYLRLNDNPWVCDCRARPLWAWLQKFRGSSSEVPCSLPQRLAGRDLKRLAANDLQGCAVATGPYHPIWTGRATDEEPLGLPKCCQPDAADKASVLEPGRPASAGNALKGRVPPGDSPPGNGSGPRHINDSPFGTLPGSAEPPLTAVRPEGSEPPGFPTSGPRRRPGCSRKNRTRSHCRLGQAGSGGGGTGDSE | no binding (tested: 5 nM) |
| human NgR mutant 182, 186 (mutated to alanine) (receptor) CPGACVCYNEPKVTTSCPQQGLQAVPVGIPAASQRIFLHGNRISHVPAASFRACRNLTILWLHSNVLARIDAAAFTGLALLEQLDLSDNAQLRSVDPATFHGLGRLHTLHLDRCGLQELGPGLFRGLAALQYLYLQDNALQALPDDTFRDLGNLTALFLAGNRISSVPERAFRGLHSLDRLLLHQNRVAHVHPHAFRDLGRLMTLYLFANNLSALPTEALAPLRALQYLRLNDNPWVCDCRARPLWAWLQKFRGSSSEVPCSLPQRLAGRDLKRLAANDLQGCAVATGPYHPIWTGRATDEEPLGLPKCCQPDAADKASVLEPGRPASAGNALKGRVPPGDSPPGNGSGPRHINDSPFGTLPGSAEPPLTAVRPEGSEPPGFPTSGPRRRPGCSRKNRTRSHCRLGQAGSGGGGTGDSE | no binding (tested: 5 nM) |
| human NgR mutant 211, 213, 237, 256, 259, 284 (mutated to alanine) (receptor) CPGACVCYNEPKVTTSCPQQGLQAVPVGIPAASQRIFLHGNRISHVPAASFRACRNLTILWLHSNVLARIDAAAFTGLALLEQLDLSDNAQLRSVDPATFHGLGRLHTLHLDRCGLQELGPGLFRGLAALQYLYLQDNALQALPDDTFRDLGNLTHLFLHGNRISSVPERAFRGLHSLDRLLLHANAVAHVHPHAFRDLGRLMTLYLFANALSALPTEALAPLRALQYLALNANPWVCDCRARPLWAWLQKFRGSSSAVPCSLPQRLAGRDLKRLAANDLQGCAVATGPYHPIWTGRATDEEPLGLPKCCQPDAADKASVLEPGRPASAGNALKGRVPPGDSPPGNGSGPRHINDSPFGTLPGSAEPPLTAVRPEGSEPPGFPTSGPRRRPGCSRKNRTRSHCRLGQAGSGGGGTGDSE | no binding (tested: 5 nM) |
| human NgR mutant 211, 213 (mutated to alanine) (receptor) CPGACVCYNEPKVTTSCPQQGLQAVPVGIPAASQRIFLHGNRISHVPAASFRACRNLTILWLHSNVLARIDAAAFTGLALLEQLDLSDNAQLRSVDPATFHGLGRLHTLHLDRCGLQELGPGLFRGLAALQYLYLQDNALQALPDDTFRDLGNLTHLFLHGNRISSVPERAFRGLHSLDRLLLHANAVAHVHPHAFRDLGRLMTLYLFANNLSALPTEALAPLRALQYLRLNDNPWVCDCRARPLWAWLQKFRGSSSEVPCSLPQRLAGRDLKRLAANDLQGCAVATGPYHPIWTGRATDEEPLGLPKCCQPDAADKASVLEPGRPASAGNALKGRVPPGDSPPGNGSGPRHINDSPFGTLPGSAEPPLTAVRPEGSEPPGFPTSGPRRRPGCSRKNRTRSHCRLGQAGSGGGGTGDSE | no binding (tested: 5 nM) |

Other lines, results leading:

| binding result | Binder |
| --- | --- |
| no binding (tested: 5 nM) | human NgR mutant 232, 234 (mutated to alanine) (receptor) CPGACVCYNEPKVTTSCPQQGLQAVPVGIPAASQRIFLHGNRISHVPAASFRACRNLTILWLHSNVLARIDAAAFTGLALLEQLDLSDNAQLRSVDPATFHGLGRLHTLHLDRCGLQELGPGLFRGLAALQYLYLQDNALQALPDDTFRDLGNLTHLFLHGNRISSVPERAFRGLHSLDRLLLHQNRVAHVHPHAFRDLGRLMTLALAANNLSALPTEALAPLRALQYLRLNDNPWVCDCRARPLWAWLQKFRGSSSEVPCSLPQRLAGRDLKRLAANDLQGCAVATGPYHPIWTGRATDEEPLGLPKCCQPDAADKASVLEPGRPASAGNALKGRVPPGDSPPGNGSGPRHINDSPFGTLPGSAEPPLTAVRPEGSEPPGFPTSGPRRRPGCSRKNRTRSHCRLGQAGSGGGGTGDSE |
| no binding (tested: 5 nM) | human NgR mutant 111, 113, 114 (mutated to alanine) (receptor) CPGACVCYNEPKVTTSCPQQGLQAVPVGIPAASQRIFLHGNRISHVPAASFRACRNLTILWLHSNVLARIDAAAFTGLALLEQLALAANAQLRSVDPATFHGLGRLHTLHLDRCGLQELGPGLFRGLAALQYLYLQDNALQALPDDTFRDLGNLTHLFLHGNRISSVPERAFRGLHSLDRLLLHQNRVAHVHPHAFRDLGRLMTLYLFANNLSALPTEALAPLRALQYLRLNDNPWVCDCRARPLWAWLQKFRGSSSEVPCSLPQRLAGRDLKRLAANDLQGCAVATGPYHPIWTGRATDEEPLGLPKCCQPDAADKASVLEPGRPASAGNALKGRVPPGDSPPGNGSGPRHINDSPFGTLPGSAEPPLTAVRPEGSEPPGFPTSGPRRRPGCSRKNRTRSHCRLGQAGSGGGGTGDSE |
| no binding (tested: 5 nM) | human NgR mutant 189, 191, 211, 213 (mutated to alanine) (receptor) CPGACVCYNEPKVTTSCPQQGLQAVPVGIPAASQRIFLHGNRISHVPAASFRACRNLTILWLHSNVLARIDAAAFTGLALLEQLDLSDNAQLRSVDPATFHGLGRLHTLHLDRCGLQELGPGLFRGLAALQYLYLQDNALQALPDDTFRDLGNLTHLFLHGNAIASVPERAFRGLHSLDRLLLHANAVAHVHPHAFRDLGRLMTLYLFANNLSALPTEALAPLRALQYLRLNDNPWVCDCRARPLWAWLQKFRGSSSEVPCSLPQRLAGRDLKRLAANDLQGCAVATGPYHPIWTGRATDEEPLGLPKCCQPDAADKASVLEPGRPASAGNALKGRVPPGDSPPGNGSGPRHINDSPFGTLPGSAEPPLTAVRPEGSEPPGFPTSGPRRRPGCSRKNRTRSHCRLGQAGSGGGGTGDSE |
| no binding (tested: 5 nM) | human NgR mutant 111, 113, 114, 138 (mutated to alanine) (receptor) CPGACVCYNEPKVTTSCPQQGLQAVPVGIPAASQRIFLHGNRISHVPAASFRACRNLTILWLHSNVLARIDAAAFTGLALLEQLALAANAQLRSVDPATFHGLGRLHTLHLARCGLQELGPGLFRGLAALQYLYLQDNALQALPDDTFRDLGNLTHLFLHGNRISSVPERAFRGLHSLDRLLLHQNRVAHVHPHAFRDLGRLMTLYLFANNLSALPTEALAPLRALQYLRLNDNPWVCDCRARPLWAWLQKFRGSSSEVPCSLPQRLAGRDLKRLAANDLQGCAVATGPYHPIWTGRATDEEPLGLPKCCQPDAADKASVLEPGRPASAGNALKGRVPPGDSPPGNGSGPRHINDSPFGTLPGSAEPPLTAVRPEGSEPPGFPTSGPRRRPGCSRKNRTRSHCRLGQAGSGGGGTGDSE |
| no binding (tested: 5 nM) | human NgR mutant 182, 186, 158, 160 (mutated to alanine) (receptor) CPGACVCYNEPKVTTSCPQQGLQAVPVGIPAASQRIFLHGNRISHVPAASFRACRNLTILWLHSNVLARIDAAAFTGLALLEQLDLSDNAQLRSVDPATFHGLGRLHTLHLDRCGLQELGPGLFRGLAALQALALQDNALQALPDDTFRDLGNLTALFLAGNRISSVPERAFRGLHSLDRLLLHQNRVAHVHPHAFRDLGRLMTLYLFANNLSALPTEALAPLRALQYLRLNDNPWVCDCRARPLWAWLQKFRGSSSEVPCSLPQRLAGRDLKRLAANDLQGCAVATGPYHPIWTGRATDEEPLGLPKCCQPDAADKASVLEPGRPASAGNALKGRVPPGDSPPGNGSGPRHINDSPFGTLPGSAEPPLTAVRPEGSEPPGFPTSGPRRRPGCSRKNRTRSHCRLGQAGSGGGGTGDSE |
| no binding (tested: 5 nM) | human NgR mutant 171, 172, 175, 176, 196, 199, 220, 223, 224, 250 (mutated to alanine) (receptor, Label runs over two printed rows (r20c1 and r21c1)) CPGACVCYNEPKVTTSCPQQGLQAVPVGIPAASQRIFLHGNRISHVPAASFRACRNLTILWLHSNVLARIDAAAFTGLALLEQLDLSDNAQLRSVDPATFHGLGRLHTLHLDRCGLQELGPGLFRGLAALQYLYLQDNALQALPAATFAALGNLTHLFLHGNRISSVPEAAFAGLHSLDRLLLHQNRVAHVHPAAFAALGRLMTLYLFANNLSALPTEALAPLAALQYLRLNDNPWVCDCRARPLWAWLQKFRGSSSEVPCSLPQRLAGRDLKRLAANDLQGCAVATGPYHPIWTGRATDEEPLGLPKCCQPDAADKASVLEPGRPASAGNALKGRVPPGDSPPGNGSGPRHINDSPFGTLPGSAEPPLTAVRPEGSEPPGFPTSGPRRRPGCSRKNRTRSHCRLGQAGSGGGGTGDSE |

— US20120219567A1 (Biogen, published 2012)
